The source of these data is the supplement of paper PMC12042874.

± gives the uncertainty stated by the source.

A short description of the data set: amyloid nucleation score (Sup35N fusion, yeast selection) (log enrichment); library NNK3; higher = more nucleation; inactive = no reads after selection. In short, it runs like this:
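Sup35N was fused to peptides of 20 random codons and expressed in psi-negative yeast, which were induced with 100 μM copper sulfate for 24 hours and then grown on medium lacking adenine and uracil for 7 days at 30°C. Plasmid inserts from input and output were sequenced on Illumina. The nucleation score is the DiMSum log enrichment of output over input reads, centred on the mode score of non-aggregating sequences. Sequences with under 100 input reads were left out, and random libraries had three technical output replicates.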
In the case of FGLYYRLPNNCNKTGNQFTV, the amyloid nucleation score result is “inactive”.
As for IVLIKDYYSIRFDSEGIVDI, the entry is “inactive”.
To GIGLCVGYE belongs “inactive”.
To VRYRVIHMDTFVS belongs 0.933 ± 0.16; to AYQCHDDVVWWRCQMASCS, “inactive”.
In the case of TLLMMYKVGYLAMAIRMGGL, the amyloid nucleation score result is “inactive”.
As for ISFYKGYLKFNL, the entry is “inactive”.
To TKYAHPPTQDDPLCGIRRSV belongs “inactive”.
For TISDFISEEIRDLQGPVVCI, the amyloid nucleation score entry was “inactive”.
As for LKYSHEHGFFSYYACWCQQL, the entry is “inactive”; as for RSYLN, “inactive”.
To LVWSSRPTSW belongs “inactive”; to TSYKKRFCGQYLMLNVNMSW, “inactive”.
To FLGCNRV belongs “inactive”; to ESFPFVSASDCSCSNR, “inactive”; to WYPGMCFESVDTMDRHLHND, “inactive”.
INSEWIQSSAMFHPIMGRFR registered an amyloid nucleation score of -0.188 ± 1.5.
As for FTESVASYELAQVVSRSMLC, the entry is “inactive”; as for HSSCGNEVFFDSSVGSNRIL, “inactive”; as for LSGFSMIFREDNSVVFV, “inactive”.
As for NRIFSVCECMVYGICECVCR, the entry is “inactive”.
As for RAALPMVFHRFLTFMDAFLV, the figure is 1.83 ± 0.075.
Consider FVRIHVGSSTGIF, for which the amyloid nucleation score result is “inactive”.
As for IAHVMYNYQHVTSCNMSSVL, the figure is 0.726 ± 0.13.
For ILVKIRNRCLEVE, the amyloid nucleation score was -0.32 ± 1.1.
To MTLSVRMAEEQN belongs “inactive”; to REVELSNVYYNDVSACLHKK, -0.378 ± 1.4.
As for WCPSQDNFWQNFLF, the figure is -0.079 ± 0.23; as for YLYNRSMRVPLMSRKLFGGD, “inactive”; as for IYIHQDPVFKGCYWLRRGVE, “inactive”.
To HYWVLSFLNETALIIEFWH belongs “inactive”; to LYMYYWLSYVV, “inactive”; to FQRVPNWVSIILTGYRGNTC, “inactive”.
For the substance GCIIGCQLDKYGPAMPSARE, the amyloid nucleation score was 0.632 ± 0.3.
As for DSMLVISVRVRTCMLGNVVA, the entry is “inactive”; as for CLSYITLPRCLCAHRFKLG, “inactive”; as for VLKSIGV, “inactive”.
As for WSRLDMMLRLLAVLLPVRLD, the entry is “inactive”; as for SSDYTLVEILSVLFCPVGCS, “inactive”.
As for DDCQFSDNRRFKSVPSYSQR, the entry is “inactive”; as for FCLNYDGGWWCRMSCVYNQG, “inactive”; as for HVKDVMQRNFRVMGSSSR, “inactive”.
The substance SSPSWFTYLVKQVALRSVTQ registered an amyloid nucleation score of 1.55 ± 0.1.
As to HMLSNFGARVREYIAMFGRL, the amyloid nucleation score entry is “inactive”.
Turning to IYGWWLGTTYM, the amyloid nucleation score turned out to be 0.656 ± 0.21.
As for NTAPNISRSVIVCYYDDGEK, the entry is “inactive”; as for FISHRARWISDESYIICHFV, -0.067 ± 1.1; as for KKSHCRTIYKSLV, “inactive”.
To NLFSRLRYSLSAFQIWRLSV belongs “inactive”; to LGPVIS, -0.46 ± 1.7; to YQESKYIS, “inactive”.
To RFKYPPTFKMNSSSFFQSLL belongs “inactive”; to MYQVDMMLCTITDWVGSNWY, 0.666 ± 0.27; to HSVIRRFNIPMELYHMWLIS, “inactive”.
Consider TYPRLNVHLLPLDFILYPH, for which the amyloid nucleation score entry is “inactive”.
To DRPSWNMRSLNFSGQSVR belongs -0.59 ± 1.4; to VLVCTLVTSLTDAKFRKYFS, 0.813 ± 0.2.
To YFSSLNSNFWGVVRRRLLYN belongs “inactive”.
CHCIYNQCVGFSVCGCRGFG gave an amyloid nucleation score of 2.35 ± 0.058.
As for LHLGMRLV, the entry is “inactive”; as for RYYLGMHFINCMRVRVP, “inactive”; as for NVGMSKNVFGM, “inactive”.
As for FLFSW, the figure is -0.483 ± 1.9.
As for MYQLLMFAYVT, the entry is “inactive”.
Turning to PRPWRL, the amyloid nucleation score result is “inactive”.
To FQCFFRVLVV belongs “inactive”; to TGIWSGYYKLFLSVLRGRRV, “inactive”; to PKIAGFSGGTCTVA, “inactive”.
To ATYAGSVITGLCEDTLYRNC belongs “inactive”.
Consider GRGTYGSNPYRGLDIYRYDG, for which the amyloid nucleation score entry was “inactive”.
To TSKFPSDLWSNPPEMYALFI belongs “inactive”.
As for FDYLLYQLCYVYRTYKTVRR, the entry is “inactive”; as for FMRDIKLTGGCGVNCAHLHA, “inactive”.
As for SFRFLV, the entry is “inactive”; as for KKPPHRLTVLMTGIAM, “inactive”.
SNLDFMMGINSFRRVKAEPG came in with an amyloid nucleation score of -0.251 ± 0.57.
Regarding NKPGVV, the amyloid nucleation score result is “inactive”.
In the case of LSDWKFDMCYCFFVLCQELW, the amyloid nucleation score entry is “inactive”.
Turning to TATHKLTNIPW, the amyloid nucleation score entry is “inactive”.
As for KIIRMF, the entry is “inactive”.
As for LLSLFFIHPTATRRTKVSRC, the entry is “inactive”.
To NFLVVSNRYLYMVPNGHIKL belongs 2.96 ± 0.051; to GRRMSNLEKPVLLDIKANFL, “inactive”.
Turning to RNWKSYRYAVGRCDMGSELL, the amyloid nucleation score entry is “inactive”.
As for GCVSGRHDNTFRDYD, the entry is “inactive”.
In the case of QVFLSKVCMLFDVVARVVKR, the amyloid nucleation score entry is “inactive”.
As for FSILCKLVLRQLKNGSFYGF, the figure is -0.329 ± 0.77; as for DQAYWKQCSMSIWYGFRRLV, “inactive”; as for HSNVGCKFAIKYSLAFCGVK, “inactive”.
With KDSCCVGSRNAHFECYFEVA, the amyloid nucleation score entry was “inactive”.
As for LGYPCFSKWFVYSRSIGLEG, the entry is “inactive”.
As for AGVIAWVYSSG, the entry is “inactive”; as for GTRIFSRDVISSGFQGSICL, “inactive”.
To SRWYFGLLLMNNTHTVNVPL belongs “inactive”.
With FQFWGAGGDI, the amyloid nucleation score entry was “inactive”.
To LYFCKNKYTCWSACVNSGFN belongs “inactive”; to RCDVRFSWLIPSGLE, 1.56 ± 0.086; to KNFQPKTS, 0.082 ± 0.45.
As for GSQYNSFSK, the entry is “inactive”; as for ICINVESIKPMRWQAMI, “inactive”; as for YSRLTLVAEPFYNMGVKNLM, “inactive”.
In the case of VGYVWIDRYVWRYGLC, the amyloid nucleation score result is “inactive”.
To GGVTFYMYCIRLVNDQQGHR belongs 1.21 ± 0.098; to TIYSLFSLYLGIWQAPASVY, -0.455 ± 0.53.
As for QTYMTLHETVRLWARMLSC, the entry is “inactive”.
As for EPTVC, the entry is “inactive”; as for LPALEQNVLHLVMVIY, “inactive”; as for QYFSWKIRSGNLVYAF, “inactive”.
As to GQHSRSLDTSACCPT, the amyloid nucleation score result is “inactive”.
As for TRAMHSFWFESDCKY, the entry is “inactive”; as for YGSIV, “inactive”; as for RSNWPSTILTSWSARCHWLS, “inactive”.
To WLSRLVGFALSTKLGP belongs “inactive”; to SKVKDDALPTTILCGTYNLN, “inactive”; to VTRISGTETSDVYINI, 0.101 ± 0.6.
To LSFYCFNYSNFDMVWNGKYN belongs 2.29 ± 0.062; to WRFFDVDNNMSTHVLKQLRC, “inactive”.
For the substance REGCHPFELSDPDGDHLVRF, the amyloid nucleation score entry is “inactive”.
On to LVGSSSFTAWPTIVSNI, for which the amyloid nucleation score result is “inactive”.
Substance SICMNNLCVSWTMPYT registered an amyloid nucleation score of 1.5 ± 0.11.
As for FISLWQPPRL, the amyloid nucleation score entry was “inactive”.
As for ALNFPYSSRVFYFKDSAHAF, the entry is “inactive”; as for DFDAC, 0.021 ± 0.52; as for YSFMKP, “inactive”.
As for LNLGHDGYPNTSARVFHFC, the entry is “inactive”; as for MRKLDPFNSKP, “inactive”.
For FALTIGSFSRMNHTVPNPFE, the amyloid nucleation score result was “inactive”.
As to TWQEVMNVQRTS, the amyloid nucleation score result was “inactive”.
ATNLSYLNSAQVWLLT: the amyloid nucleation score entry is “inactive”.
As for KGVRCANNVLRKQRLENNNF, the entry is “inactive”.
For the substance RMVPKMSVCS, the amyloid nucleation score result was “inactive”.
To SRRVISEHSMEGNTID belongs “inactive”.
